According to the supplement of paper PMC10724198:
± gives the standard deviation of the averaged measurements.

Assays:
Saccharomyces cerevisiae [1] = test: protein stability index of tFT-peptide fusion (C-terminal peptide) (PSI (0-1 scale)); higher = more stable (slower turnover)
Method: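 MPS profiling in S. cerevisiae of the tFT-X12 degron library: putative degron peptides plus stable controls, 12 aa, fused to the C-terminus of a sfGFP-mCherry timer. Cells are FACS-sorted into 8 mCherry/sfGFP bins and deep-sequenced. PSI runs from 0 (unstable) to 1 (stable). Backgrounds are wild type, das1Δ and doa10Δ at 30 °C, and wild type, das1Δ, cdc34-1 and cdc53-1 at 37 °C; 2-3 technical replicates each.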

Saccharomyces cerevisiae [2] = test: as above; conditions: genetic background: wild type; temperature: 30 C
[3] = genetic background: cdc34-1, temperature: 37 C
[4] = genetic background: cdc53-1, temperature: 37 C
[5] = genetic background: das1 deletion, temperature: 30 C
[6] = genetic background: das1 deletion, temperature: 37 C
[7] = genetic background: doa10 deletion, temperature: 30 C
[8] = genetic background: wild type, temperature: 30 C
[9] = genetic background: wild type, temperature: 37 C
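Also: PSI is a weighted mean of sequencing reads over stability bins, variants kept only with over 10 reads, mCherry proximal and sfGFP distal, peptide attached via GGGS linker.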

VICSLFRYIMRL
protein stability index (Saccharomyces cerevisiae [1]; [3]): 0.414 ± 0.021 | protein stability index (Saccharomyces cerevisiae [1]; [4]): 0.518 ± 0.0071 | protein stability index (Saccharomyces cerevisiae [1]; [5]): 0.571 ± 0.013 | protein stability index (Saccharomyces cerevisiae [1]; [6]): 0.6336 ± 0.0037 | protein stability index (Saccharomyces cerevisiae [1]; [7]): 0.18 ± 0.019 | protein stability index (Saccharomyces cerevisiae [1]; [8]): 0.132 ± 0.0062 | protein stability index (Saccharomyces cerevisiae [1]; [9]): 0.134 ± 0.043 | protein stability index (Saccharomyces cerevisiae [2]): 0.199 ± 0.0043

SRVCVLTGISCA
protein stability index (Saccharomyces cerevisiae [1]; [3]): 0.568 ± 0.011 | protein stability index (Saccharomyces cerevisiae [1]; [4]): 0.606 ± 0.016 | protein stability index (Saccharomyces cerevisiae [1]; [5]): 0.416 ± 0.029 | protein stability index (Saccharomyces cerevisiae [1]; [6]): 0.6023 ± 0.0038 | protein stability index (Saccharomyces cerevisiae [1]; [7]): 0.387 ± 0.013 | protein stability index (Saccharomyces cerevisiae [1]; [8]): 0.421 ± 0.011 | protein stability index (Saccharomyces cerevisiae [1]; [9]): 0.572 ± 0.013 | protein stability index (Saccharomyces cerevisiae [2]): 0.473 ± 0.018

GSVHLTKERHLV
protein stability index (Saccharomyces cerevisiae [1]; [3]): 0.66 ± 0.028 | protein stability index (Saccharomyces cerevisiae [1]; [4]): 0.74 ± 0.03 | protein stability index (Saccharomyces cerevisiae [1]; [5]): 0.648 ± 0.032 | protein stability index (Saccharomyces cerevisiae [1]; [6]): 0.7436 ± 0.0024 | protein stability index (Saccharomyces cerevisiae [1]; [7]): 0.207 ± 0.0061 | protein stability index (Saccharomyces cerevisiae [1]; [8]): 0.241 ± 0.036 | protein stability index (Saccharomyces cerevisiae [1]; [9]): 0.499 ± 0.0063 | protein stability index (Saccharomyces cerevisiae [2]): 0.319 ± 0.016

GVGHAWHYFCVC
protein stability index (Saccharomyces cerevisiae [1]; [3]): 0.614 ± 0.044 | protein stability index (Saccharomyces cerevisiae [1]; [4]): 0.7347 ± 0.0032 | protein stability index (Saccharomyces cerevisiae [1]; [5]): 0.608 ± 0.018 | protein stability index (Saccharomyces cerevisiae [1]; [6]): 0.74764 ± 0.00017 | protein stability index (Saccharomyces cerevisiae [1]; [7]): 0.197 ± 0.017 | protein stability index (Saccharomyces cerevisiae [1]; [8]): 0.247 ± 0.021 | protein stability index (Saccharomyces cerevisiae [1]; [9]): 0.431 ± 0.0045 | protein stability index (Saccharomyces cerevisiae [2]): 0.357 ± 0.025

AELLMLRIFFLF
protein stability index (Saccharomyces cerevisiae [1]; [3]): 0.281 ± 0.0063 | protein stability index (Saccharomyces cerevisiae [1]; [4]): 0.48 ± 0.036 | protein stability index (Saccharomyces cerevisiae [1]; [5]): 0.333 ± 0.019 | protein stability index (Saccharomyces cerevisiae [1]; [6]): 0.491 ± 0.022 | protein stability index (Saccharomyces cerevisiae [1]; [7]): 0.091 ± 0.0049 | protein stability index (Saccharomyces cerevisiae [1]; [8]): 0.0708 ± 0.019 | protein stability index (Saccharomyces cerevisiae [1]; [9]): 0.0944 ± 0.032 | protein stability index (Saccharomyces cerevisiae [2]): 0.132 ± 0.027

SFVFLVRRWLFV
protein stability index (Saccharomyces cerevisiae [1]; [3]): 0.354 ± 0.071 | protein stability index (Saccharomyces cerevisiae [1]; [4]): 0.582 ± 0.02 | protein stability index (Saccharomyces cerevisiae [1]; [5]): 0.563 ± 0.011 | protein stability index (Saccharomyces cerevisiae [1]; [6]): 0.622 ± 0.023 | protein stability index (Saccharomyces cerevisiae [1]; [7]): 0.136 ± 0.0077 | protein stability index (Saccharomyces cerevisiae [1]; [8]): 0.133 ± 0.017 | protein stability index (Saccharomyces cerevisiae [1]; [9]): 0.159 ± 0.011 | protein stability index (Saccharomyces cerevisiae [2]): 0.213 ± 0.025

MLLFVSCCVFLF
protein stability index (Saccharomyces cerevisiae [1]; [3]): 0.134 ± 0.021 | protein stability index (Saccharomyces cerevisiae [1]; [4]): 0.185 ± 0.011 | protein stability index (Saccharomyces cerevisiae [1]; [5]): 0.202 ± 0.038 | protein stability index (Saccharomyces cerevisiae [1]; [6]): 0.292 ± 0.0093 | protein stability index (Saccharomyces cerevisiae [1]; [7]): 0.157 ± 0.0093 | protein stability index (Saccharomyces cerevisiae [1]; [8]): 0.169 ± 0.032 | protein stability index (Saccharomyces cerevisiae [1]; [9]): 0.219 ± 0.019 | protein stability index (Saccharomyces cerevisiae [2]): 0.206 ± 0.063

VVVFRWTCWLLV
protein stability index (Saccharomyces cerevisiae [1]; [3]): 0.0544 ± 0.005 | protein stability index (Saccharomyces cerevisiae [1]; [4]): 0.144 ± 0.023 | protein stability index (Saccharomyces cerevisiae [1]; [5]): 0.0835 ± 0.013 | protein stability index (Saccharomyces cerevisiae [1]; [6]): 0.245 ± 0.0041 | protein stability index (Saccharomyces cerevisiae [1]; [7]): 0.0257 ± 0.014 | protein stability index (Saccharomyces cerevisiae [1]; [8]): 0.0385 ± 0.011 | protein stability index (Saccharomyces cerevisiae [1]; [9]): 0.06333 ± 0.00029 | protein stability index (Saccharomyces cerevisiae [2]): 0.0581 ± 0.028

SDVLVVWVFFCR
protein stability index (Saccharomyces cerevisiae [1]; [3]): 0.292 ± 0.0075 | protein stability index (Saccharomyces cerevisiae [1]; [4]): 0.4196 ± 0.0033 | protein stability index (Saccharomyces cerevisiae [1]; [5]): 0.26 ± 0.032 | protein stability index (Saccharomyces cerevisiae [1]; [6]): 0.466 ± 0.013 | protein stability index (Saccharomyces cerevisiae [1]; [7]): 0.216 ± 0.029 | protein stability index (Saccharomyces cerevisiae [1]; [8]): 0.263 ± 0.037 | protein stability index (Saccharomyces cerevisiae [1]; [9]): 0.435 ± 0.0063 | protein stability index (Saccharomyces cerevisiae [2]): 0.405 ± 0.043

HWVRLSSLAFVS
protein stability index (Saccharomyces cerevisiae [1]; [3]): 0.2245 ± 0.0018 | protein stability index (Saccharomyces cerevisiae [1]; [4]): 0.289 ± 0.011 | protein stability index (Saccharomyces cerevisiae [1]; [5]): 0.289 ± 0.036 | protein stability index (Saccharomyces cerevisiae [1]; [6]): 0.233 ± 0.0082 | protein stability index (Saccharomyces cerevisiae [1]; [7]): 0.202 ± 0.022 | protein stability index (Saccharomyces cerevisiae [1]; [8]): 0.183 ± 0.014 | protein stability index (Saccharomyces cerevisiae [1]; [9]): 0.1895 ± 0.00075 | protein stability index (Saccharomyces cerevisiae [2]): 0.176 ± 0.01

FSGRYFLLFRFL
protein stability index (Saccharomyces cerevisiae [1]; [3]): 0.238 ± 0.035 | protein stability index (Saccharomyces cerevisiae [1]; [4]): 0.28 ± 0.0032 | protein stability index (Saccharomyces cerevisiae [1]; [5]): 0.341 ± 0.0075 | protein stability index (Saccharomyces cerevisiae [1]; [6]): 0.389 ± 0.0091 | protein stability index (Saccharomyces cerevisiae [1]; [7]): 0.083 ± 0.015 | protein stability index (Saccharomyces cerevisiae [1]; [8]): 0.0605 ± 0.014 | protein stability index (Saccharomyces cerevisiae [1]; [9]): 0.144 ± 0.038 | protein stability index (Saccharomyces cerevisiae [2]): 0.104 ± 0.019

GIVSGEGAVGVG
protein stability index (Saccharomyces cerevisiae [1]; [3]): 0.46 ± 0.041 | protein stability index (Saccharomyces cerevisiae [1]; [4]): 0.511 ± 0.025 | protein stability index (Saccharomyces cerevisiae [1]; [5]): 0.468 ± 0.0097 | protein stability index (Saccharomyces cerevisiae [1]; [6]): 0.5212 ± 0.0039 | protein stability index (Saccharomyces cerevisiae [1]; [7]): 0.488 ± 0.022 | protein stability index (Saccharomyces cerevisiae [1]; [8]): 0.466 ± 0.011 | protein stability index (Saccharomyces cerevisiae [1]; [9]): 0.4989 ± 0.0019 | protein stability index (Saccharomyces cerevisiae [2]): 0.509 ± 0.025

LFVSLSFVVFLP
protein stability index (Saccharomyces cerevisiae [1]; [3]): 0.276 ± 0.0041 | protein stability index (Saccharomyces cerevisiae [1]; [4]): 0.381 ± 0.014 | protein stability index (Saccharomyces cerevisiae [1]; [5]): 0.26 ± 0.037 | protein stability index (Saccharomyces cerevisiae [1]; [6]): 0.421 ± 0.013 | protein stability index (Saccharomyces cerevisiae [1]; [7]): 0.261 ± 0.013 | protein stability index (Saccharomyces cerevisiae [1]; [8]): 0.261 ± 0.025 | protein stability index (Saccharomyces cerevisiae [1]; [9]): 0.391 ± 0.0072 | protein stability index (Saccharomyces cerevisiae [2]): 0.34 ± 0.077

VKVKMKIIIIIK
protein stability index (Saccharomyces cerevisiae [1]; [3]): 0.243 ± 0.16 | protein stability index (Saccharomyces cerevisiae [1]; [4]): 0.258 ± 0.16 | protein stability index (Saccharomyces cerevisiae [1]; [5]): 0.28 ± 0.044 | protein stability index (Saccharomyces cerevisiae [1]; [6]): 0.416 ± 0.032 | protein stability index (Saccharomyces cerevisiae [1]; [7]): 0.3087 ± 0.0006 | protein stability index (Saccharomyces cerevisiae [1]; [8]): 0.281 ± 0.087 | protein stability index (Saccharomyces cerevisiae [1]; [9]): 0.432 ± 0.012 | protein stability index (Saccharomyces cerevisiae [2]): 0.341 ± 0.0073

WLCWVVWFPGLF
protein stability index (Saccharomyces cerevisiae [1]; [3]): 0.395 ± 0.035 | protein stability index (Saccharomyces cerevisiae [1]; [4]): 0.509 ± 0.028 | protein stability index (Saccharomyces cerevisiae [1]; [5]): 0.369 ± 0.032 | protein stability index (Saccharomyces cerevisiae [1]; [6]): 0.541 ± 0.012 | protein stability index (Saccharomyces cerevisiae [1]; [7]): 0.1615 ± 0.00068 | protein stability index (Saccharomyces cerevisiae [1]; [8]): 0.171 ± 0.012 | protein stability index (Saccharomyces cerevisiae [1]; [9]): 0.297 ± 0.015 | protein stability index (Saccharomyces cerevisiae [2]): 0.244 ± 0.035

VRRFNVLLYVRG
protein stability index (Saccharomyces cerevisiae [1]; [3]): 0.459 ± 0.029 | protein stability index (Saccharomyces cerevisiae [1]; [4]): 0.4921 ± 0.0032 | protein stability index (Saccharomyces cerevisiae [1]; [5]): 0.311 ± 0.027 | protein stability index (Saccharomyces cerevisiae [1]; [6]): 0.528 ± 0.0053 | protein stability index (Saccharomyces cerevisiae [1]; [7]): 0.324 ± 0.0045 | protein stability index (Saccharomyces cerevisiae [1]; [8]): 0.321 ± 0.019 | protein stability index (Saccharomyces cerevisiae [1]; [9]): 0.523 ± 0.012 | protein stability index (Saccharomyces cerevisiae [2]): 0.425 ± 0.0063

RPPSLVFLFLLT
protein stability index (Saccharomyces cerevisiae [1]; [3]): 0.551 ± 0.062 | protein stability index (Saccharomyces cerevisiae [1]; [4]): 0.587 ± 0.021 | protein stability index (Saccharomyces cerevisiae [1]; [5]): 0.441 ± 0.048 | protein stability index (Saccharomyces cerevisiae [1]; [6]): 0.598 ± 0.01 | protein stability index (Saccharomyces cerevisiae [1]; [7]): 0.401 ± 0.026 | protein stability index (Saccharomyces cerevisiae [1]; [8]): 0.395 ± 0.015 | protein stability index (Saccharomyces cerevisiae [1]; [9]): 0.573 ± 0.023 | protein stability index (Saccharomyces cerevisiae [2]): 0.441 ± 0.032

CFFILSLMVVVI
protein stability index (Saccharomyces cerevisiae [1]; [3]): 0.0733 ± 0.0068 | protein stability index (Saccharomyces cerevisiae [1]; [4]): 0.16 ± 0.027 | protein stability index (Saccharomyces cerevisiae [1]; [5]): 0.12 ± 0.029 | protein stability index (Saccharomyces cerevisiae [1]; [6]): 0.229 ± 0.0071 | protein stability index (Saccharomyces cerevisiae [1]; [7]): 0.0944 ± 0.0056 | protein stability index (Saccharomyces cerevisiae [1]; [8]): 0.0999 ± 0.03 | protein stability index (Saccharomyces cerevisiae [1]; [9]): 0.183 ± 0.0091 | protein stability index (Saccharomyces cerevisiae [2]): 0.194 ± 0.054

FSLLTWPFVFLV
protein stability index (Saccharomyces cerevisiae [1]; [3]): 0.126 ± 0.021 | protein stability index (Saccharomyces cerevisiae [1]; [4]): 0.0782 ± 0.0059 | protein stability index (Saccharomyces cerevisiae [1]; [5]): 0.252 ± 0.041 | protein stability index (Saccharomyces cerevisiae [1]; [6]): 0.346 ± 0.037 | protein stability index (Saccharomyces cerevisiae [1]; [7]): 0.0816 ± 0.015 | protein stability index (Saccharomyces cerevisiae [1]; [8]): 0.0575 ± 0.0078 | protein stability index (Saccharomyces cerevisiae [1]; [9]): 0.0613 ± 0.011 | protein stability index (Saccharomyces cerevisiae [2]): 0.08711 ± 0.00051
